Measurements as given in US20090214574A1.

B1: affinity matured anti-CD16A scFv 4-LS21 (scFv)
scFv: EVQLVQSGAEVKKPGESLKVSCKASGYTFTSYYMHWVRQAPGQGLEWMGIINPSGGSTSYAQKFQGRVTMTRDTSTSTVYMELSSLRSEDTAVYYCARGSAYYYDFADYWGQGTLVTVSSGSASAPTLKLEEGEFSEARVQPVLTQPSSVSVAPGQTATISCGGHNIGSKNVHWYQQRPGQSPVLVIYQDNKRPSGIPERFSGSNSGNTATLTISGTQAMDEADYYCQVWDNYSVLFGGGTKLTVLGQPKAAPSVTLFPPSAAAGSEQKLISEEDLNSHHHHHH
B2: CD30×CD16^LS21 TandAb/(G2S)3 (bispecific antibody, part only; not given: anti-CD30 VH and VL, His tag, not shown: small tags and cut ends)
chain, part: EEVQLVQSGAEVKKPGESLKVSCKASGYTFTSYYMHWVRQAPGQGLEWMGIINPSGGSTSYAQKFQGRVTMTRDTSTSTVYMELSSLRSEDTAVYYCARGSAYYYDFADYWGQGTLVTVSSGGSGGSGGSGGSGGSGGSGGSGGSGGSQPVLTQPSSVSVAPGQTATISCGGHNIGSKNVHWYQQRPGQSPVLVIYQDNKRPSGIPERFSGSNSGNTATLTISGTQAMDEADYYCQVWDNYSVLFGGGTKLTVL

Assays:
[1] = target: human CD16A-Fc^48R/158F fusion protein (human) (UniProt P08637); test: surface plasmon resonance
[2] = target: human CD16A-Fc^48R/158F fusion protein (human) (UniProt P08637); test: SPR, BIAcore 2000, antigen immobilized
[3] = target: human CD16A-Fc^48R/158F fusion protein (human) (UniProt P08637); test: SPR, BIAcore 2000, antigen immobilized, koff/kon
[4] = target: human CD16A-Fc^48R/158V fusion protein (human) (UniProt P08637); test: affinity measurement, method not named for the TandAb
[5] = target: human CD16A-Fc^48R/158F fusion protein (human) (UniProt P08637); test: as above

Sequence of human CD16A-Fc^48R/158F fusion protein (human) (P08637 17-208): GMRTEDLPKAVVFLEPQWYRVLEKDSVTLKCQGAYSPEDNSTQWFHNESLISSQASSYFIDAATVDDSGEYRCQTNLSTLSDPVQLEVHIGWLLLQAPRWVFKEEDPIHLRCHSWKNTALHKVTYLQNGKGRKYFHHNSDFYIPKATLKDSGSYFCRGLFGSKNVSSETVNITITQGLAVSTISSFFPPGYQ
Sequence of human CD16A-Fc^48R/158V fusion protein (human) (P08637 17-208 L66R/F176V limits assumed): as the sequence (P08637 17-208) above, with L50R, F160V counted along it

Binder	Kd [1] [nM]	koff [2] [s⁻¹]	kon [2] [M⁻¹ s⁻¹]	Kd [3] [nM]	fold improvement in affinity over the 4-LS21 scFv [4] [fold]	fold improvement in affinity over the 4-LS21 scFv [5] [fold]
B1	50	0.00323	71300	45.3		
B2					> 10	> 10
